From patent publication US8012929B2, “Peptides directed for diagnosis and treatment of amyloid-associated diseases” (Tel Aviv University Future Technology Development L.P., priority 2002, dated 2011)
Entries after “also recorded” stand apart in the source; their conditions may differ. Blank lines part the entries; values can stand above or below the substance they belong to. Ends that are not written are not given here.

Legend:
Assay type in all cases: physicochemical
[1] = Transmission electron microscopy of aged peptides (Example 10); conditions: for fibrilar supramolecular ultrastructures by electron microscopy: peptides derived from amyloid proteins, mild conditions
Experimental: Transmission Electron Microscopy—A 10 μL sample of 8 mg/ml peptide solution in 10 mM Tris buffer, pH 7.2 aged for at least one day was placed on 400-mesh copper grids (SPI supplies, West Chester Pa.) covered by carbon-stabilized Formvar film. Following 1 minute, excess fluid was removed, and the grid was then negatively stained with 2% uranyl acetate in water for another two minutes. Samples were viewed in a JEOL 1200EX electron microscope operating at 80 kV.

[2] = Kinetic aggregation assay, turbidity at 405 nm (Example 8)
Experimental: Kinetic Aggregation Assay—freshly prepared peptide stock solutions were generated by dissolving the lyophilized form of the peptides in dimethyl sulfoxide (DMSO) at a concentration of 100 mg/ml. To avoid any pre-aggregation, fresh stock solutions were prepared for each experiment. […] Turbidity data were collected at 405 nm. Buffer solution containing the same amount of DMSO as the tested samples was used as blank, which was subtracted from the results. Turbidity was measured continuously at room temperature using THERMOmax ELISA plate reader (Molecular Devices, Sunnyvale Calif.).

[3] = Fourier transform infrared spectroscopy of aged peptides (Example 11); conditions: for secondary structure by FT-IR (amide I): Calcitonin-derived peptides; for secondary structure by FT-IR: hIAPP peptide fragments, aged solutions from turbidity assay
Experimental: Fourier Transform Infrared Spectroscopy—Infrared spectra were recorded using a Nicolet Nexus 470 FT-IR spectrometer with a DTGS detector. Samples of aged peptide solutions, taken from turbidity assay, were suspended on a CaF2 widows (Sigma)-plate and dried by vacuum. The peptide deposits were resuspended with […] and subsequently dried to form thin films. The resuspension procedure was repeated twice to ensure maximal hydrogen to deuterium exchange. The measurements were taken using a 4 cm^−1 resolution and 2000 scans averaging. The transmittance minima values were determined by the OMNIC analysis program (Nicolet).

[4] = Congo Red staining and birefringence (Example 9)
Experimental: Congo Red Staining and Birefringence—A 10 μL suspension of 8 mg/ml peptide solution in 10 mM Tris buffer, pH 7.2 aged for at least one day was allowed to dry overnight on a glass microscope slide. Staining was performed by the addition of a 10 μL suspension of saturated Congo Red (CR) and NaCl in 80% ethanol (v/v) solution as previously described [Puchtler (1966) Supra]. The solution was filtered via 0.45 μm filter. The slide was then dried for few hours. Birefringence was determined with a SZX-12 Stereoscope (Olympus, Hamburg, Germany) equipped with cross polarizers.

[5] = Aggregate mean particle size by dynamic light scattering; conditions: 100 μM peptide, 1% DMSO, 10 mM Tris pH 7.2
Experimental: Therefore, the average size of the aggregates, formed by the various peptides, was determined using dynamic light scattering (DLS) experiments.
Method—Freshly prepared peptide stock solutions at a concentration of 10 mM were diluted in 10 mM Tris buffer pH 7.2 and further filtrated through a 0.2 μm filter to a final concentration of 100 μM peptide and 1% DMSO. Particle size measurement was conducted with a laser-powered ALV-NIBS/HPPS non-invasive backscattering instrument. Autocorrelation data was fitted using the ALV-NIBS/HPPS software to derive average apparent hydrodynamic diameters.

[6] = Kinetic aggregation assay (turbidity at 405 nm) of IAPP peptide fragment and alanine mutants; conditions: 2 mM peptide, 10 mM Tris pH 7.2, 2% DMSO, room temperature
Experimental: To study self-assembly of the IAPP peptide derived fragments, aggregation and insolubilization kinetics were monitored using turbidity measurements at 405 nm.
Kinetic aggregation assay—Fresh peptide stock solutions were prepared by dissolving lyophilized form of the peptides in DMSO, a disaggregating solvent, at a concentration of 100 mM. To avoid any pre-aggregation, fresh stock solutions were prepared prior to each and every experiment. Peptide stock solutions were diluted into assay buffer and plated in 96-well plates as follows: 2 μl of peptides stock solutions were added to 98 μl of 10 mM Tris pH 7.2, resulting in a 2 mM final concentration of the peptide in the presence of 2% DMSO. Turbidity data was measured at 405 nm. A buffer solution including 2% DMSO was used as a blank. Turbidity was measured at room temperature over several time points.

[7] = Congo red binding assay with polarization microscopy (Example 4)
Experimental: Congo red (CR) staining combined with polarization microscopy was utilized to test amyloidogenicity of the peptides of the present invention. […] Invest. 31:232-8; Lansbury (1992) Biochemistry 31:6865-70]. […] Staining was effected by the addition of 1 mM CR in 10 mM Tris buffer pH 7.2 followed by a 1 minute incubation. To remove excess CR, slides were rinsed with double-distilled water and dried. Saturated CR solutions solubilized in 80% ethanol (v/v) were used for poorly aggregating peptides. In such cases, staining was effected without rinsing. Birefringence was determined using a WILD Makroskop m420 (×70) equipped with a polarizing stage.

[8] = Negative staining electron microscopy of fibril formation (Example 5); conditions: 2 mM peptide incubated overnight
Experimental: Method—Peptide solutions (2 mM peptide in 10 mM Tris buffer pH 7.2), were incubated overnight at room temperature. Fibrils formation was assessed using 10 μl sample placed on 200-mesh copper grids, covered with carbon-stabilized formvar film (SPI Supplies, West Chester Pa.). Following 20-30 seconds of incubation, excess fluid was removed and the grids were negatively stained with 2% uranyl acetate in water. Samples were viewed in a JEOL 1200EX electron microscope operating at 80 kV.

[9] = Calcitonin-derived peptides, 0.02M NaCl, 0.01M Tris pH 7.2, aged 2 days
[10] = peptide solutions incubated for four days
[11] = hIAPP peptide fragments, 8 mg/ml aged at least one day
[12] = hIAPP peptide fragments, 8 mg/ml, 8% DMSO, monitored two hours
[13] = Medin-derived peptides, aged 4 days

Substance: NFGAILSS
structures by electron microscopy ([1]; hIAPP 22-29 and analogues, five days of incubation): well-ordered fibrils
turbidity at 405 nm ([2]; hIAPP 22-29 and hydrophobic analogues, up to 24 hours): significant increase in turbidity

Substance: NH2-DFNK -COOH (H-DFNK-OH)
secondary structure by FT-IR (amide I) [3]: less typical of a β-sheet structure
Congo Red birefringence ([4]; Calcitonin-derived peptides): lower level of birefringence
structures by electron microscopy [1, 9]: also formed fibrillar structures

Substance: I5A: isoleucine to alanine mutant of the hIAPP peptide fragment, SEQ ID NO: 5 (NFGAALSS)
apparent hydrodynamic diameter of the structures formed [5]: Smaller structures
kinetics of aggregation (turbidity at 405 nm) [6]: reduced the kinetics of aggregation but did not abolish it completely
Congo red binding and birefringence [7, 10]: bound CR and exhibited rare but characteristic birefringence
fibril structures by electron microscopy [8]: lower in comparison to that of wild type; also recorded: More distinct structures and longer fibrils, albeit less frequent

Substance: SFNNG (also: EG modification)
fibrilar supramolecular ultrastructures by electron microscopy [1]: filamentous structures were observed

Substance: NFLVH
secondary structure by FT-IR [3]: indicative of β-sheet
Congo Red birefringence [4, 11]: powerful smear of birefringence at the edges of the sample
structures by electron microscopy [1, 11]: thin and short
turbidity at 405 nm [2, 12]: almost no turbidity at all

Substance: NFLVHSSNN
secondary structure by FT-IR [3]: large β-sheet content
Congo Red birefringence [4, 11]: weaker characteristic birefringence
structures by electron microscopy [1, 11]: long thin coiling filaments
turbidity at 405 nm [2, 12]: very low turbidity

turbidity at 405 nm ([2]; Medin-derived peptides): significantly lower turbidity
Substance: H-NAGSVQ-OH
Congo Red birefringence ([4]; Medin-derived peptides): some degree of birefringence could still be detected
structures by electron microscopy [1, 13]: no clear fibrillar structures could be detected

Substance: SNFLN (also: EG modification)
fibrilar supramolecular ultrastructures by electron microscopy [1]: filamentous structures were observed

Substance: NH2-NFGSV -COOH (H-NFGSV-OH)
Congo Red birefringence ([4]; Medin-derived peptides): very low degree of birefringence
structures by electron microscopy [1, 13]: network of fibrous structures
turbidity at 405 nm ([2]; Medin-derived peptides): highest degree of aggregation within minutes of incubation

Substance: FLVHS
Congo Red birefringence [4, 11]: typical birefringence
structures by electron microscopy [1, 11]: large broad ribbon-like fibrils
turbidity at 405 nm [2, 12]: high turbidity

Substance: NH2-FGSV -COOH (H-FGSV-OH)
Congo Red birefringence ([4]; Medin-derived peptides): no birefringence
structures by electron microscopy [1, 13]: no fibrillar structures could be found
turbidity at 405 nm ([2]; Medin-derived peptides): gradual increase in turbidity

Substance: NH2-FGSVQ -COOH (H-FGSVQ-OH)
Congo Red birefringence ([4]; Medin-derived peptides): no birefringence
structures by electron microscopy [1, 13]: somewhat fibrillar and ordered structure could be seen
turbidity at 405 nm ([2]; Medin-derived peptides): gradual increase in turbidity

Substance: wild type peptide: wild-type eight amino-acid hIAPP peptide fragment, NFGAIL motif followed by two serines, SEQ ID NO: 1 (NFGAILSS)
apparent hydrodynamic diameter of the structures formed [5]: very similar hydrodynamic diameters
Congo red binding and birefringence ([7]; peptide solution incubated for 14 days): significant CR birefringence
Congo red binding and birefringence [7, 10]: bound CR and exhibited the characteristic green/gold birefringence
fibril structures by electron microscopy [8]: tangled net-like structures

Substance: FLVH
secondary structure by FT-IR [3]: typical to random coil structure
Congo Red birefringence [4, 11]: no birefringence
structures by electron microscopy [1, 11]: amorphous aggregates
amyloid fibril formation (EM, CR staining, FT-IR) ([1]; incubated for two months): no evidence for amyloid fibril formation was detected
turbidity at 405 nm [2, 12]: almost no turbidity at all

Substance: RDFLDR
fibrilar supramolecular ultrastructures by electron microscopy [1]: filamentous structures were observed

Substance: TLIFGG (also: EG modification)
fibrilar supramolecular ultrastructures by electron microscopy [1]: filamentous structures were observed

Substance: ERGFF
fibrilar supramolecular ultrastructures by electron microscopy [1]: filamentous structures were observed

Substance: LFNQTG
fibrilar supramolecular ultrastructures by electron microscopy [1]: filamentous structures were observed

Substance: NH2-DFN -COOH (H-Asp-Phe-Asn-OH)
secondary structure by FT-IR (amide I) [3]: consistent with a mixture of β-sheet and random structures
Congo Red birefringence ([4]; Calcitonin-derived peptides): lower but significant
structures by electron microscopy [1, 9]: more ordered structures

Substance: SFFSFL (also: EG modification)
fibrilar supramolecular ultrastructures by electron microscopy [1]: filamentous structures were observed

Substance: LQNFTL
fibrilar supramolecular ultrastructures by electron microscopy [1]: filamentous structures were observed

Substance: NH2-DFNKF-COOH (H-DFNKF-OH)
secondary structure by FT-IR (amide I) [3]: consistent with anti-parallel β-sheet structure
Congo Red birefringence ([4]; Calcitonin-derived peptides): clear and strong
structures by electron microscopy [1, 9]: clearly seen with high frequency

Substance: FENKF
fibrilar supramolecular ultrastructures by electron microscopy [1]: filamentous structures were observed

Substance: RALDFA
fibrilar supramolecular ultrastructures by electron microscopy [1]: filamentous structures were observed

Substance: SGIFTN (also: EG modification)
fibrilar supramolecular ultrastructures by electron microscopy [1]: filamentous structures were observed

Substance: NFGSVQFV [published amyloidogenic octapeptide of Medin, reference compound]
Congo Red birefringence ([4]; Medin-derived peptides): significant birefringence
structures by electron microscopy [1, 13]: Fibrillar structures were clearly seen
turbidity at 405 nm ([2]; Medin-derived peptides): too fast to be measured

Substance: NH2-GSVQ -COOH (H-GSVQ-OH)
Congo Red birefringence ([4]; Medin-derived peptides): unexpected high level of birefringence
structures by electron microscopy [1, 13]: no fibrillar structures could be found

Substance: GLVFVS
fibrilar supramolecular ultrastructures by electron microscopy [1]: filamentous structures were observed

Substance: GTFQIN
fibrilar supramolecular ultrastructures by electron microscopy [1]: filamentous structures were observed

Substance: NFLVHSS
secondary structure by FT-IR [3]: classical for an anti-parallel β-sheet structure
Congo Red birefringence [4, 11]: typical birefringence
structures by electron microscopy [1, 11]: large broad ribbon-like fibrils
turbidity at 405 nm [2, 12]: high turbidity

Substance: NH2- FNKF-COOH (H-FNKF-OH)
secondary structure by FT-IR (amide I) [3]: typical of a non-ordered structure
Congo Red birefringence ([4]; Calcitonin-derived peptides): lower but significant
structures by electron microscopy [1, 9]: only amorphous aggregates could be found

Substance: FLVHSS
secondary structure by FT-IR [3]: major minimum at 1626
Congo Red birefringence [4, 11]: typical birefringence
structures by electron microscopy [1, 11]: large broad ribbon-like fibrils
turbidity at 405 nm [2, 12]: high turbidity

Substance: NH2-NFGSVQ -COOH (H-NFGSVQ-OH)
Congo Red birefringence ([4]; Medin-derived peptides): characteristic bright and strong green-gold birefringence
structures by electron microscopy [1, 13]: Fibrillar structures were clearly seen
turbidity at 405 nm ([2]; Medin-derived peptides): gradual increase in turbidity
